Experimental data published in publication PMC11674828.

Substrate: N[C@@H](CC(=O)O)C(=O)O
Test: purified protein
Conditions: pH 8.0

Protein | Km [mM] | kcat [s⁻¹] | kcat/Km [M⁻¹ s⁻¹]
(Escherichia coli K-12) (protein) chain 1: MIRTMLQGKLHRVKVTHADLHYEG chain 2: SCAIDQDFLDAAGILENEAIDIWNVTNGKRFSTYAIAAERGSRIISVNGAAAHCASVGDIVIIASFVTMPDEEARTWRPNVAYFEGDNEMKRTAKAIPVQVA | 7.9 ± 0.1 | 1.4 | 180
(Corynebacterium glutamicum ATCC 13032) (protein) chain 1: MLRTILGSKIHRATVTQADLDYVG chain 2: SVTIDADLVHAAGLIEGEKVAIVDITNGARLETYVIVGDAGTGNICINGAAAHLINPGDLVIIMSYLQATDAEAKAYEPKIVHVDADNRIVALGNDLAEALPGSGLLTSRSI | 4.3 ± 0.2 | 2.8 | 650
(Thermus thermophilus HB8) (protein) chain 1: MKRVMFHAKIHRATVTQADLHYVG chain 2: SVTVDQDLLDAAGILPFEQVDIYDITNGARLTTYALPGERGSGVIGINGAAAHLVKPGDLVILVAYGVFDEEEARNLKPTVVLVDERNRILEVRKG | 8.5 ± 0.1 | 2.2 | 260
